Measured values from patent publication US20230192831A1.

How the values were obtained:
[1] = molecular target: recombinant human GREM1 (hGREM1-His; C-terminal 10His tagged, R&D, #5190-GR) (human) (UniProt O60565); assay: BLI Octet, captured mAb, 100 nM GREM1
[2] = molecular target: recombinant human GREM1 (hGREM1-His; C-terminal 10His tagged, R&D, #5190-GR) (human) (UniProt O60565); assay: BLI Octet, captured mAb, 100 nM GREM1 + 5 uM heparin
[3] = molecular target: recombinant human GREM1 (hGREM1-His; C-terminal 10His tagged, R&D, #5190-GR) (human) (UniProt O60565); assay: cell-based or functional assay
[4] = molecular target: recombinant human GREM1 (hGREM1-His; C-terminal 10His tagged, R&D, #5190-GR) (human) (UniProt O60565); assay: BLI Octet, captured mAb, 100 nM GREM1 without vs with 5 uM heparin

recombinant human GREM1 (hGREM1-His; C-terminal 10His tagged, R&D, #5190-GR) (human), sequence (O60565 other isoform, or with tags, fused parts or gaps limits assumed, form in doubt): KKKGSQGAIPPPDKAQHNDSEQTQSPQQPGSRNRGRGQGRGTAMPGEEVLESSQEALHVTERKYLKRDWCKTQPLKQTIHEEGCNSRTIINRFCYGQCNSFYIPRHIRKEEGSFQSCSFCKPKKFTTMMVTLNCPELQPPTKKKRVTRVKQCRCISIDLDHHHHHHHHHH

Row | Binder | Binding Signal with 30 sec Association (nm) [1] | Binding Signal with 300 sec Association (nm) [1] | Binding Signal with 30 sec Association (nm) [2] | Binding Signal with 300 sec Association (nm) [2] | IC50 [M], W-20-17/BRE-luc luciferase bioassay, 100 pM hBMP4 and 10 nM hGREM1-His [3] | hGREM1-His Inhibition IC50, M; W-20-17 cell differentiation assay (alkaline phosphatase) [3] | Reduction in Signal from Heparin at 30 sec [4] | Reduction in Signal from Heparin at 300 sec [4]
1 | H4H2895N (antibody, human IgG4, V domains shown) VH: EVQLVESGGGLVQPGGSLRLSCAASGFTVSSNYMSWVRQAPGKGLEWVSVIYSGGNTYYADSVKGRFTISRHNSKNTLYLQMNSLRAEDTAVYYCARDLGIKSDYWGQGTLVTVSS VL: EIVLTQSPDFQSVTPKEKVTITCRASQSIGTTLHWYQQKPDQSPKLLIKYVSQSLSGVPSRFSGSGSGTDFTLTINSLEAEDAATYYCHQSSSLPWTFGQGTKVEIK | 0.15 nm | 0.5 nm | 0.22 nm | 0.54 nm | 5.8e-10 M | 1.9 nM | -0.07 nm | -0.04 nm
2 | H4H2926N (antibody, human IgG4, V domains shown) VH: EVQLVESGGGLVQTGRSLRLSCAASGFTFDDYAMNWVRQAPGKGLEWVSGISWNSGNIGYADSVKGRFTISRDNAKNSLYLQMNSLRAEDTALYYCVKYIGQQLVQDYFDYWGQGTLVTVSS VL: DIQMTQSPSSLSASVGDRVTITCQASQDITNYLNWYQQRPGKAPKLLIYDAFNLERGVPSRFSGSGYGTYFTFTISSLQPEDIAIYYCQQYDNLPLTFGGGTKVEIE | 0.23 nm | 0.49 nm | 0.07 nm | 0.42 nm | 1.2e-09 M | 13 nM | 0.16 nm | 0.07 nm
3 | H4H2783N2 (antibody, human IgG4, V domains shown) VH: EVQLLESGGGLVQPGGSLRLSCAASGFTFSSYVMNWVRQAPGKGLEWVSAISGSGGSTYYADSVKGRSTISRDNSKNTLYLQMNSLRAEDTAIYYCAKGDIAAIVFDAFDIWGQGTVVTVSS VL: DIQMTQSPSSLSASVGDRVTITCQASQDISSALNWYQHKPGKAPKLLIYDASYLETGVPSRFSGSGSGTDFTFTISSLQPEDIATYYCQQYDNLPYTFGQGTKLEIK | 0.29 nm | 0.47 nm | 0.01 nm | 0.29 nm | 1.3e-09 M | 5.6 nM | 0.28 nm | 0.18 nm
4 | H4H6232P (antibody, human IgG4, V domains shown) VH: QVQLVQSGAEVKKPGASVKVSCKVSGYTLTELSMHWVRQAPGKGLEWMGGFDPEDGETIYAQKFQGRLTMTEDTSTDTAYMELSSLRSEDTAVYYCATDDYDILTSYPYNMDVWGQGTTVTVSS VL: DIQMTQSPSSLSASVGDRVTITCRASQSINNYLNWYQQKPGKAPKLLIYAASSLQSGVPSRFSGSGSGTDFTLTISSLQPEDFGTYYCQQSDSTPFTFGPGTKVDIK | 0.33 nm | 0.48 nm | 0.06 nm | 0.46 nm | 7.8e-10 M | 4.5 nM | 0.27 nm | 0.02 nm
5 | H4H2892N (antibody, human IgG4, V domains shown) VH: QVQLVESGGGVVQPGRSLRLSCAASGFTFSSYGIHWVRQAPGKGLEWVAILWYDGSNKYYADSVKGRFTISRDNSKTTLYLQMNSLRAEDTAVYYCARENYNDLNFDLWGRGTLVTVSS VL: DIQLTQSPSFLSASVGDRVTITCWASQGISSYLAWYQHKPGKAPKLLIYAASTLQSGVPSRFSGSGSGIEFTLTISSLQPEDFATYYCQQLKSYPPWTFGQGTKVEIR | 0.2 nm | 0.49 nm | 0.15 nm | 0.49 nm | 9.5e-10 M | 4.4 nM | 0.05 nm | 0 nm
6 | H4H6240P (antibody, human IgG4, V domains shown) VH: QVQLVESGGGVVQPGRSLRLSCAASGFTFSSYGMHWVRQAPGKGLEWVAVIWYDGSNKYYADSVKGRFIISRDNSKNMMYLQMNSLRAEDTAVYYCAREDNWNYAFDYWGQGTLVTVSS VL: EIVMTQSPATLSVSPGERATLSCRASQSISSNLAWYQQKPGQAPRLLIYDSSTRATGIPARFSGSGSGTQFTLTISSLQSEDFALYYCQQYSNWPPFTFGPGTKVDIK | 0.23 nm | 0.53 nm | 0.05 nm | 0.37 nm | 8.1e-10 M | 7.8 nM | 0.18 nm | 0.16 nm
7 | H4H2889N (antibody, human IgG4, V domains shown) VH: QVQLQESGPGLVKPSETLSLTCTVSGGSISNSYWSWIRQPPGKGLEWIGYIYYSGNTNYNPSLKSRVTISVDTSKNQFSLKLSSVTAADTAVYYCARVNDYSNYDSYYYGMDVWGQGTTVTVSS VL: AIQMTQSPSSLSASVGDRVTITCRASQGIRNDLGWYQQKPGKAPKLLIYAASSLQSGVPSRFSGSGSGTDFTLTISSLQPEDFATYYCLQDYNYPPTFGQGTKVDIK | 0.2 nm | 0.46 nm | 0.05 nm | 0.44 nm | 1.2e-09 M | 5.4 nM | 0.15 nm | 0.02 nm
8 | H4H6269P (antibody, human IgG4, V domains shown) VH: QVQLQESGPGLVKPSQTLSLTCTVSGGSISSGGYYWTWIRQHPGKGLEWIGYIYYSGSTYYNPSLKSRVTMSVDTSKNQFSLKLSSVTAADTAVYYCARLLDFDYWGQGTLVTVSS VL: AIQMTQSPSSLSASVGDRVTITCRASQGIRNDLGWYQQKPGKAPKLLIYAASSLQSGVPSRFSGSGSGRDFTLTISSLQPEDFASYYCLQDHNYPLTFGGGTKVEIK | 0.15 nm | 0.6 nm | 0.14 nm | 0.52 nm | – | – | 0.01 nm | 0.08 nm
9 | H4H2780N (antibody, human IgG4, V domains shown) VH: EVQLVESGGGLVKPGGSLRLSCAASGFTFSTYSMNWVRQAPGKGLEWVSSISSGSSYIYYTDSVKGRFTISRDNAKNSLYLQMNSLRAEDTAVYYCARFGSYYYFGFDVWGQGTTVTVSS VL: DIQMTQSPSSLSASVGDRVTITCRASQGISNYLAWYQQKPGKVPKLLIFSASTLQSGVPSRFSGSGSGPDFTLTVSSLQPEDVATYYCQKYNSAPFAFGPGTKVDIK | 0.13 nm | 0.58 nm | 0.13 nm | 0.58 nm | 49 | – | 0 nm | 0 nm
